Experimental data as given in patent US7460961B2, “N-TRADD active site and uses thereof” (Genetics Institute, LLC, priority 2000, dated 2008).

Target: T1, C-TRAF2 (residues 262 to 501 of human TRAF2) (Homo sapiens, UniProt Q12933)
T1 construct: C-TRAF2 (residues 262-501) was purified and coupled to a sensor chip CM5; initiator Met added before residue 262 (N); 6xHis (C); made in house; host or cells: baculovirus in 'Tini' cells (insect cells), vector pAcSG2
T1 sequence (Q12933 262-501): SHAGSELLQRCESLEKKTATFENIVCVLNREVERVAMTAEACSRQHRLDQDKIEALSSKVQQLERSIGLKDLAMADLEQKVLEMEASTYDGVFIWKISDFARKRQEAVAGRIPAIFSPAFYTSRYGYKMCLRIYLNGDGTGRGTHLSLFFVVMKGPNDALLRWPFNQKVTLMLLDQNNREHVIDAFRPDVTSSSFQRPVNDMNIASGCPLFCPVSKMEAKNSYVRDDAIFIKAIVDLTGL
Experiment: BIAcore surface plasmon resonance binding to immobilised C-TRAF2
Settings: C-TRAF2 coupled to CM5 chip, read-out: Kd of the interaction between N-TRADD and C-TRAF2
Experimental: C-TRAF2 and N-TRADD binding studies: The affinity of wild-type N-TRADD and C-TRAF2 was measured by surface plasma resonance using a BIAcore 2000 system (Pharmacia Biosensor AB). C-TRAF2 (residues 262-501) was purified and coupled to a sensor chip CM5 by amine coupling at pH=5.0 to get about 800, 1500 and 5500 response units on three different flow cells. A constant flow (20 μL/min) of purified N-TRADD protein in 10 mM Hepes, pH=7.4, 150 mM NaCl, 3.4 mM EDTA and 0.05% P20 surfactant at 8 different concentrations from 650 μM to 84 μM was applied over the protein coupled chip for 2 min to analyze the association. Binding constants were obtained from the BIAevaluation software.
The ^1H-^15N HSQC of N-TRADD was used as a tool to map the binding interface with C-TRAF2, since the chemical shifts of contact residues will be perturbed upon complex formation. […] The C-TRAF2 (residues 262-501) used in the instant HSQC titration experiment (at 120 μM) is also a trimer, as determined by size exclusion chromatography. […] N-TRADD Mutagenesis and interactions between C-TRAF2 and N-TRADD: In order to further characterize the amino acids in N-TRADD that are involved in C-TRAF2 recognition, site directed mutants of N-TRADD were prepared and evaluated for their ability to bind C-TRAF2. […]
The affinity of N-TRADD mutants to C-TRAF2 was measured by BIAcore. […]

B1: N-TRADD: N-terminal domain (amino acid residues 1-169, SEQ ID NO:1) of human TNFR-1 associated death domain protein (protein)
chain: MAAGQNGHEWVGSAYLFVESSLDKVVLSDAYAHPQQKVAVYRALQAALAESGGSPDVLQMLKIHRSDPQLIVQLRFCGRQPCGRFLRAYREGALRAALQRSLAAALAQHSVPLQLELRAGAERLDALLADEERCLSCILAQQPDRLRDEELAELEDALRNLKCGSGAR
Kd: 6 µM
